Data on one molecule can be found in PMC4288179, “Synergic interplay of the La motif, RRM1 and the interdomain linker of LARP6 in the recognition of collagen mRNA expands the RNA binding repertoire of the La module”.

One series deals with T1, HsLARP6(74-313) (Homo sapiens, UniProt Q9BRS8 74-313).
T1 sequence: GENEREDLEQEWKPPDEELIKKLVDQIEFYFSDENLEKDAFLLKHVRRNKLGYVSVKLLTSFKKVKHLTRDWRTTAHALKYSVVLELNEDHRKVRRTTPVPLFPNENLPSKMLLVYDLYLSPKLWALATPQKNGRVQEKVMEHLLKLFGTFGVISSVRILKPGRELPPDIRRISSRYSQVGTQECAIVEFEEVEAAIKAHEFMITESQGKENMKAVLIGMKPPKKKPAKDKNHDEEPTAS
Kind of series: ITC; ITC: 20 mM Tris pH 7.25, 100 mM KCl, 5 mM MgCl2, 1 mM DTT, 298 K; protein titrated into RNA. As to conditions: protein: recombinant; tags: N-terminal His6 (TEV-cleavable); stem-loop with internal bulge.

In series [1] the target is T2, HsLARP6(70-300) R244E/R245E/R249E (Homo sapiens, UniProt Q9BRS8 70-300, R244E;R245E;R249E).
T2 sequence: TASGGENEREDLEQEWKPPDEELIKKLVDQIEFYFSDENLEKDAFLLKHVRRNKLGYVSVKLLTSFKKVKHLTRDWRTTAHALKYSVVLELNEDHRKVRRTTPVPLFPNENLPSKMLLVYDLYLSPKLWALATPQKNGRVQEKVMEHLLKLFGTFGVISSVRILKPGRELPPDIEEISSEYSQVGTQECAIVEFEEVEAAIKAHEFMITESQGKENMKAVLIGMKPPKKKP
The series is described as above. The conditions noted are these: protein: recombinant; tags: N-terminal His6 (TEV-cleavable); stem-loop with internal bulge.

Another series concerns the target T3, HsLARP6(70-300) D112A (Homo sapiens, UniProt Q9BRS8 70-300, D112A).
T3 sequence: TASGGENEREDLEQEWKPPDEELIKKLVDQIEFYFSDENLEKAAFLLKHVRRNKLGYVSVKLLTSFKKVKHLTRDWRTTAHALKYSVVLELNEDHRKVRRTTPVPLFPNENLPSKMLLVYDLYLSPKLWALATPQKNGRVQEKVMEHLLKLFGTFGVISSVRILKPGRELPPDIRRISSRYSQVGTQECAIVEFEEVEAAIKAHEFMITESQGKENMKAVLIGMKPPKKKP
Described as above. The conditions noted are these: protein: recombinant; tags: N-terminal His6 (TEV-cleavable); stem-loop with internal bulge.

For another series, the target named is T4, HsLARP6(70-300) Y189A (Homo sapiens, UniProt Q9BRS8 70-300, Y189A).
T4 sequence: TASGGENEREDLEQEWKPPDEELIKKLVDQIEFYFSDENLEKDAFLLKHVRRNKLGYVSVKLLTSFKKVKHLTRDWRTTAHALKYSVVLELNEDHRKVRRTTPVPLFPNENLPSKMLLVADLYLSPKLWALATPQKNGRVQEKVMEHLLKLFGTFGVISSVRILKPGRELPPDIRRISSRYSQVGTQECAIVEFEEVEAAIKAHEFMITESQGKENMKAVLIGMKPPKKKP
Described as above. As to conditions: protein: recombinant; tags: N-terminal His6 (TEV-cleavable); stem-loop with internal bulge.

The target of series [2] is T5, HsLARP6 La module (70-300) (Homo sapiens, UniProt Q9BRS8 70-300).
T5 sequence: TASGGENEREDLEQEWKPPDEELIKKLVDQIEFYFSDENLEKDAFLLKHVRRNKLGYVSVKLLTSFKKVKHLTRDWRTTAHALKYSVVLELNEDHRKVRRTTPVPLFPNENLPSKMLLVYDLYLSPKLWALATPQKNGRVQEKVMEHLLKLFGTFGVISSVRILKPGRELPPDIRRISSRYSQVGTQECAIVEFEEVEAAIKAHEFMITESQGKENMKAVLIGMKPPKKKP
Described as above. As to conditions: protein: recombinant; tags: N-terminal His6, TEV-cleaved for initial ITC; stem-loop with internal bulge.

A further series addresses T6, Interlinker chimera (Homo sapiens, UniProt Q9BRS8 70-178+P05455:101-111+181-300, internal_change).
T6 sequence: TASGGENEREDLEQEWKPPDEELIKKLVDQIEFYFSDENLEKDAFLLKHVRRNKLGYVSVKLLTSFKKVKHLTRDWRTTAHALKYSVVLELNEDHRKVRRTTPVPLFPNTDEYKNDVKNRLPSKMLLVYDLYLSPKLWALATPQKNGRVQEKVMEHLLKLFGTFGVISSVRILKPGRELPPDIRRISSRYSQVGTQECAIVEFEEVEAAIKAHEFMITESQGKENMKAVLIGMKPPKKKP
The series is described as follows: ITC; text says 500-fold decrease; table gives about 14-fold; ITC: 20 mM Tris pH 7.25, 100 mM KCl, 5 mM MgCl2, 1 mM DTT, 298 K; protein titrated into RNA. The conditions noted are these: protein: recombinant; tags: N-terminal His6 (TEV-cleavable); stem-loop with internal bulge. For orientation: In ITC the heat of successive injections is recorded.

B1: 48 nt RNA (collagen alpha1(I) 5' UTR SL) (structured_RNA)
RNA: CCACAAAGAGUCUACAUGUCUAGGGUCUAGACAUGUUCAGCUUUGUGG
With B1, the Kd with HsLARP6(74-313) was 26 nM; in series [1] it was 27 nM; with HsLARP6(70-300) D112A, 172 nM; with HsLARP6(70-300) Y189A, 59 nM; in series [2] it was 48 nM; with Interlinker chimera it was 667 nM.

The term Kd denotes a measure of binding affinity in units of concentration.
